Experimental data: the supplement of paper PMC12338614

B1: library; numbered along this chain (parent)
chain: MEVVDPQQLGMFTEGELMSVGMDTFIHRIDSTEVIYQPRRKRAKLIGKYLMGDLLGEGSYGKVKEVLDSETLCRRAVKILKKKKLRRIPNGEANVKKEIQLLRRLRHKNVIQLVDVLYNEEKQKMYMVMEYCVCGMQEMLDSVPEKRFPVCQAHGYFCQLIDGLEYLHSQGIVHKDIKPGNLLLTTGGTLKISDLGVAEALHPFAADDTCRTSQGSPAFQPPEIANGLDTFSGFKVDIWSAGVTLYNITTGLYPFEGDNIYKLFENIGKGSYAIPGDCGPPLSDLLKGMLEYEPAKRFSIRQIRQHSWFRKKHPPAEAPVPIPPSPDTKDRWRSMTVVPYLEDLHGADEDEDLFDIEDDIIYTQDFTVPGQVPEEEASHNGQRRGLPKAVCMNGTEAAQLSTKSRAEGRAPNPARKACSASSKIRRLSACKQQ

Variants of: B1
Experiment: STK11 functional score (HeLa growth suppression), rescaled enrichment; synonymous median = 1, nonsense median = 0 (normalised score)
Settings: with HeLa; variant type: missense
Outline: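 The functional score takes the post/pre-selection log ratio, corrects it to wild type, rescales it to synonymous and nonsense medians, and merges it over codons and replicate transfections, with error from bootstrapping. Counts came from tiled gDNA amplicons sequenced on NextSeq (~2 million reads per tile). The libraries were POPCode codon-randomised, codon-optimised STK11 integrated by Bxb1 at an AAVS1 landing pad in HeLa, three regions with three transfections each.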

STK11 functional score: each site, then its substitutions
S213: W 1.14, T 1.05, Y 1.34, V 1.02
Q220: A 1.3, L 0.714, Y 1.33, S 1.21, R 0.808, V 0.924, T 1.67, H 0.87, P 0.0844, D 0.747, W 1.46, E 0.51, M 1.15, C 1.18, K 0.583, G 0.849
A218: D 0.324, M 1.35, V 1.07, L 0.905, Q 1.25, Y 1.34, I 0.926, C 0.947, E 1.23, P 0.529, K 1.28, H 0.853, R 0.926, W 0.671, N 1.35, F 1.26, T 0.88, G 0.816, S 1.09
I238: C 1.39, N 1.22, F 0.0789, M 0.843
G227: S 1.49, T 1.67, M 1.69, C 0.981, Q 1.26, P 1.1, E 0.563, R 0.588, L 0.694, D 1.13, Y 1.46, A 0.273, W 1.29, V 0.625, F 1.14
V236: S 1.4, I 1.24, W 1.04, A 1.56, L 0.273, F 1.21, C 1.44
N226: K 0.86, H 0.561, M 0.459, C 1.29, A 1.61, R 1.51, G 1.24, W 1.65, T 1.26, I 0.495, P 0.609, Q 1.45, L 1.08, E 0.0384, S 0.759, V 0.778
L228: A 1.66, R 1.68
